From the RNAGym collection of RNA variant scans (doi:10.1073/pnas.2313332121) come the findings set out here.

B1: TPR t1 (parent)
chain: GACCAAUCUGCCCUCAGAGCUCGAGAACAUCUUCGGAUGCAGAGGAGGCAGGCUUCGGUGGCGCGAUAGCGCCAACGUCCUCAACCUCCAAUGCAUCCCACCACAUGAUGAUGCCUGAAGAGCCUUGGUUUUUUG

Variants of B1 are the subject of this data set. In words: polymerase ribozyme fitness, log enrichment relative to wild type (log ratio); higher = more active; in vitro selection for triplet polymerase activity. The gist of the method: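 Input and output libraries were sequenced on Illumina after a single in vitro selection round, run in triplicate on PCR-built, transcribed mutant libraries of each subunit of a heterodimeric triplet polymerase ribozyme. Selection annealed libraries to a biotinylated primer, the partner subunit and triplets, incubated them frozen at −7 °C, then gel-excised extended constructs for streptavidin-bead capture and RT-PCR. Genotypes with ≥10 input reads and ≥1 read per output were kept. Fitness is the logarithm, taken in base 2, of genotype enrichment divided by wild-type enrichment, using inverse-variance-weighted replicate averages.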
Turning to A6G C64U C73U G117C, the “polymerase ribozyme fitness (log ratio)” value was -2.37. As for A6U G19U A121U, the “polymerase ribozyme fitness (log ratio)” value is -1.67. For A6G U14G G58A C70U the value was -1.12; for A6C C56U A83C U112G, -1.14. As to A6U U7C A41G G110A, the “polymerase ribozyme fitness (log ratio)” value is -1.88. The result for A6G C22U A43C G45U C94A C124A reads -5.87. For A6U G93C the value was -0.28.

For A6G C40G U59A A103U, the “polymerase ribozyme fitness (log ratio)” value is -6.42. For the variant U7A C13U A41U C82A G127A, the “polymerase ribozyme fitness (log ratio)” value is -2.71.

As for A6C A108G U129G, the “polymerase ribozyme fitness (log ratio)” value was -3.64.

With U7A C12U G113C, the “polymerase ribozyme fitness (log ratio)” value is -2.14.

A6U C15U C31G G51A U54A C73U C115U: the “polymerase ribozyme fitness (log ratio)” value is -5.8. With A6G U112A U125G U129A, the “polymerase ribozyme fitness (log ratio)” value was -1.7. For A6G G51A the value was -2.27. The result for U7A G39A G52A reads 0.0728; that for U7A C11A C101U G122U, 0.139. As to U7C C62A G110A A119C, the “polymerase ribozyme fitness (log ratio)” value was -4.23.

Take U7A C49U G52U G61A G120A: the “polymerase ribozyme fitness (log ratio)” value came out at 0.469. The result for A6G U14G G58A reads -0.642; that for A6U U14G, -1.38; that for A6G C8G C11U C22U C79U, -3.56. The result for A6U C22U G51A reads -5.76.

Take A6U A26U C34A A43U A121C: the “polymerase ribozyme fitness (log ratio)” value was -7.38. A6U C49A C53A C79A C85U A111C: the “polymerase ribozyme fitness (log ratio)” value is -3.36. In the case of A6G C34G C56A C70G G120U, the “polymerase ribozyme fitness (log ratio)” value is -6.8. For A6U C15A C56A A75G A105C the value was -4.99; for A6U C12U G110U, -1.97; for A6C C8A U87A, 0.391. For A6C A29U G52U C53U G63U G120A C123U the value was -3.79; for U7C C20A G39C G61A, -3.85; for U7C C8G, -0.253. The result for A6C C15U C34A G39C reads -5.02.

Regarding U7A C56A G65C G71A, the “polymerase ribozyme fitness (log ratio)” value was -7.51. As for U7C C49U A50C G60U G127A, the “polymerase ribozyme fitness (log ratio)” value is -0.326.

In the case of A6C G52A C79U U87A, the “polymerase ribozyme fitness (log ratio)” value was -0.58. For U7C C22A C82A C89U the value was -4.93; for U7A U21G G35A G52C C114U, -5.47; for A6G G10A C20A U112G, -1.35.

With A6U U7C C70A C76G, the “polymerase ribozyme fitness (log ratio)” value was -2.57. For U7A C56G C101U the value was 0.801; for A6C G117U U126A U131C, -6.38; for A6U G60A C82G C101U G120A G128U, -2.36. Regarding A6C C12G G52A G63U U106A, the “polymerase ribozyme fitness (log ratio)” value is -2.76. In the case of A6G A18U C40G G42U U81C, the “polymerase ribozyme fitness (log ratio)” value is -4.14.

On to A6C A24G A26G U87G U112C A121G, for which the “polymerase ribozyme fitness (log ratio)” value was -0.944.

As to A6G G25A C34U G42C G69C U87C C114A C124U, the “polymerase ribozyme fitness (log ratio)” value is -6.61. For A6C C40U G60A C73G G107U C124U the value was -5.46. The result for U7A U21C G71U A90G reads -0.779; that for U7A G42A C86U, -1.98. For the variant A6C G47A C62U C86U U133G, the “polymerase ribozyme fitness (log ratio)” value was -0.219. Take U7A C62U U129A: the “polymerase ribozyme fitness (log ratio)” value was -0.65. The result for A6C U30C G69A reads -5.82. The result for A6C C15U G63C reads -2.01; that for U7A G25A G42U A50U G61A C85G A90C C123U U133G, -8.16. The result for A6G A46U U54G reads -1.68; that for A6U C53A G63U A100U, -3.98; that for A6C C8U C11U G69U C104G, -5.29. Turning to A6U G36C A37G A43G, the “polymerase ribozyme fitness (log ratio)” value is -2.57.

As to A6U C8A, the “polymerase ribozyme fitness (log ratio)” value came out at 0.618. The result for A6U G19C C82U C94A A111C reads -4.5; that for U7A G17U G52C C64U C123G, -1.52; that for U7A G60U U112A, 1.29. The result for A5U G71U reads -0.497. For A6U C8A A37G G61U C98A the value was -3.75; for U7C C62A C99G U112G U132C U134A G135U, -7.59; for A5U G63C G117A, -3.54. U7A C8A A37G U59G C62U C88U G113C: the “polymerase ribozyme fitness (log ratio)” value was -3.69. The result for A6U C8A U129A reads -1.48; that for U7A G57A, -0.474; that for A5U U112A A118U U125C, 0.369. A6U C8G G44U C49A G77U G120C U130G: the “polymerase ribozyme fitness (log ratio)” value was -2.14. On to A6C G71C G113U, for which the “polymerase ribozyme fitness (log ratio)” value is -4.81. For the variant A6U C22G A26U C104U, the “polymerase ribozyme fitness (log ratio)” value was -4.49. For A6U A84U G110U the value was -1.45. For A5U U9C G45A the value was -0.0819; for U7C C8U C20A G71A G93U, -5.59; for U7C C13U G60A A105U, -1.71. For A6G C12U G36U G52U C70U U96G A121C the value was -2.52. For A6U A16U A46C C56G, the “polymerase ribozyme fitness (log ratio)” value is -2.72.

Consider U7A G47C C62U, for which the “polymerase ribozyme fitness (log ratio)” value is -1.37.

For the variant A6U G113C, the “polymerase ribozyme fitness (log ratio)” value is -2.6.

With A6U G113A, the “polymerase ribozyme fitness (log ratio)” value is -1.07. The result for U7A G10C U21A C56U reads -2.02. As for U7C A27U C79U, the “polymerase ribozyme fitness (log ratio)” value is -3.22. Consider A6U A26U, for which the “polymerase ribozyme fitness (log ratio)” value was -3.54. Turning to U7A C20U G120U, the “polymerase ribozyme fitness (log ratio)” value is -0.3. In the case of A6C G36U G51A U109C C115U, the “polymerase ribozyme fitness (log ratio)” value is -6.39. The result for A6C G10A U33A C49A A121U reads -2.86; that for A6G G77U C82A C104U A121U U130A, 1.36. The result for A6U G44A C56U reads -0.291. The result for A6U A26U C70A G120U reads -5.12; that for A6U A29G G44A C82A, -2.51; that for A6U C15A A37C C40G C80U U96G, -2.51. For the variant A6U G47A C72G A75G, the “polymerase ribozyme fitness (log ratio)” value is -2.41. For U7A G10U C64G G93A the value was -6.26. With A6C A43U A83U C98U C104U, the “polymerase ribozyme fitness (log ratio)” value was -2.52. The result for A6C U78A C79A reads -3.63. For U7A C11A U14G G45U C53U C70A G113A G120U U133A the value was -4.43; for U7C C12A C13A G17A A27C C115U, -5.21; for U7C A66U U106C, -1.58. A5U U14G U59A C62U: the “polymerase ribozyme fitness (log ratio)” value is -2.15. The result for A6G C72G C89U reads -0.661; that for A6U C70A, -0.922. The result for A6U G10C C12U C49A G69C A90C A91U reads -2.98; that for A6G C12U A43C U54C C56U A66G C72U C73A, -6.56; that for A5U U59A U92A U129G, -3.92. A6U A27U G63A A121G U130A: the “polymerase ribozyme fitness (log ratio)” value is -2.41. As for U7A U9C C15A A41U C56U U92G, the “polymerase ribozyme fitness (log ratio)” value was -1.45. For A6C C22G A43C U59A U87C A118G the value was -5.18; for A6U A26G G52A G71U, -3.21; for U7C C31U, -4.85. For A6U C11U C124G the value was 1.11. As for A6C G48A C82A, the “polymerase ribozyme fitness (log ratio)” value is -1.56. The result for U7A U38G C49A reads -0.102; that for U7A C13U C15U G44U U59C G77U, -2.18; that for A6C U9G G57U G113U G128U, -3.88. The result for A6G U14A C72U C88U G93A reads -1.77; that for A6G C72A C79A C102U A118U, -2.3; that for A6C C11U G61U G113U, -4.99. The result for U7C C49A G61U A83C U129C reads -0.315; that for A6U C20A G61U U125G, -2.23; that for A6G G48A G52C C85G U112C, -0.453. With A6G G45A C72U U109G G120U, the “polymerase ribozyme fitness (log ratio)” value was -5.05.

For the variant A6U C86U C89G, the “polymerase ribozyme fitness (log ratio)” value was -1.63. For U7C C8G C12U G19C G63A A66U C115A G128C the value was -4.6; for A6C G61C U92C, -4.76; for A6U U9C G47A G69A, -2.93. The result for A6U A26U G36C G63C reads -5.14; that for A6C G52U C70G A74U G120C, -5.83; that for A6C C76A C79U, -0.8.

Take U7A G61C: the “polymerase ribozyme fitness (log ratio)” value is -1.93. For A6C A41U A43G G57U U130G the value was -3.78; for A6U A50C, 0.0675; for A6G G60U U78C C104A U109A, -5.54. Regarding A6G C13G G51A C79G C88A G93C A108U C115U C124U, the “polymerase ribozyme fitness (log ratio)” value is -7.39. As to U7A A46G C70U A111C G113A, the “polymerase ribozyme fitness (log ratio)” value was -3.8.

In the case of A6U A37U G60U C82G C85G, the “polymerase ribozyme fitness (log ratio)” value is -2.29. With U7A G35A U78G, the “polymerase ribozyme fitness (log ratio)” value is -4.41.

Take U7A C8A C13U C56U G61A C79U G120A: the “polymerase ribozyme fitness (log ratio)” value is -4.91. On to U7C C13G C72A, for which the “polymerase ribozyme fitness (log ratio)” value was -0.177. Regarding A6G C8A U125A, the “polymerase ribozyme fitness (log ratio)” value stood at 0.146. For A6U C40G G51U the value was -4.16. For A6U C72U U96C G117U the value was -3.88; for U7C C97U C114A, -1.45. The result for A6C C80A reads -1.52. As to A6C G10A C13A A75G U125G, the “polymerase ribozyme fitness (log ratio)” value is -0.518. The result for U7C A27G U92A reads -3.82; that for A5U G63C C85A C101A A118U, -2.94.

For the variant A6G C22A G48U G110U, the “polymerase ribozyme fitness (log ratio)” value is -6.03. Take A6C A24G A37U G48C G69C C79G C85G C101A C124U: the “polymerase ribozyme fitness (log ratio)” value was -5.82.

Consider A6U A68G A75U U92A C123A, for which the “polymerase ribozyme fitness (log ratio)” value was -4.87. The result for A6C A26U C62U reads -2.91; that for A6U U30C, -2.71. Consider A6G G44C U112C, for which the “polymerase ribozyme fitness (log ratio)” value was found to be 0.311.

In the case of A6C U21A A37G A90G G120U G127U, the “polymerase ribozyme fitness (log ratio)” value was -0.919. As for U7A C8U G107C C124U, the “polymerase ribozyme fitness (log ratio)” value was -4.43. For the variant A6G G10A, the “polymerase ribozyme fitness (log ratio)” value was determined as 0.127.

For A6C C85G U92A U112G, the “polymerase ribozyme fitness (log ratio)” value was -6.59. Turning to A6G U7G A18C G48U C53A G63A C115A, the “polymerase ribozyme fitness (log ratio)” value was -1.55.

In the case of U7A C12G C40G U106C C114G, the “polymerase ribozyme fitness (log ratio)” value is -5.02. Consider U7A C15A A41C A66C, for which the “polymerase ribozyme fitness (log ratio)” value was -4.5. For A6G A121U U125G the value was -0.777; for A6G G71A C101A, -3.04. For A6U G52U C53G C70U G128C the value was -2.99.

For A6U G60C, the “polymerase ribozyme fitness (log ratio)” value was 0.0676.

As to A6U A46U C115A, the “polymerase ribozyme fitness (log ratio)” value was -2.18. For A6U C53G the value was -0.289.
